The domain aggregation screens of Martell et al. (2025)

Assay: soluble fraction after stress (log2 fold change); higher = more stays soluble; pooled small domains, quantitative proteomics
Conditions: stress: 50 degC
Outline: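 The stress applied to every library was 50°C. These custom libraries of small protein domains were pooled and measured at high throughput with quantitative proteomics as the read-out. Aggregation propensity is expressed as the base-two logarithm of the fold change in how much of each protein remains soluble. The higher the value, the more of that protein stays in solution.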

Sequence	soluble fraction (log2)
HMQPMIQIHTLANHAPVALHIKRNTQRNIIIRARDASSLNLSIPKWFSPAQLQNWLRDNEATLIRILQQAP	-2.49
HMYSMSAPMPGVILEIKVAPGDQVNKGDVVMVLEAMKMKNDLHAARTGTVESIDINSGEQVKYGQVLLRFV	-0.14
HMSGKWKIRILWYIAEYEVQRFGELRRRLGDITQSTLTEQLRELEQDGFVSRYVYQEVPSKVEYSLTE	0.143
HMLDVFSAEQVADVLSVSKRNLETWANNGKLIPDFIHGEVALYSKKQLEQFEQFQRFFNSSWDAERLIQP	-0.947
HMRRQRNPEIFDQLVNKFHFTFTQTQQLKQLIKRWHMLFPGKSLKSAIQGYKSAKEILTYINDSLDVVE	0.124
HMQERQREGFVQQLRGKYSGQVVMRLFPELQGKALGEFMRKFEAQWEDHEAVLAAMEAHEIESRLKVFK	-0.965
HMTPTRQATVSVAALNVREQPSLQGRRLGKLTQGTTLTVVGPPGEWLKIEYKGETGFVYASYTSLG	-1.59
HMDTNTIIGLRIKALRTEKKYTLKYLSENSGLSIGFLSQLERGMTSVAIDSLDKISKVLDVELSSFFN	-2.93
HMKKMSFKEAFLKYVEIKDNPYNMESVKMLVSLQPLIVKAYSILGVDKVRRLNYVKTKIQDAIINGD	-1.9
HMAKDEYGLTSNQRAFADEYIRNKGNATQAYLFAYPHIKKENTAAVNASRLLRNAKVSKYIADRTKEIL	0.287
HMRRVGTALNRSHKVSYGESIQSIAARYNVNPTMLREYNRLKPEATITPGQILRIPPATIAS	0.00426
HMDAAYVYVIGTRVNQRAGPSTSNAVMGVLSEGTRVETLRDEGQWTQIRSNFGTGWMSSSFLSSVAP	-1.55
HMRSHLSANLQRLRHIAGLTQKDLALAANLPRATLASLEQGEANPRLDTLLAVASALQVGLDELIAAP	-0.866
HMELQYSQEIEEAQKILENLGLYRGEIDGINGINTKSAIREFQRKSGLVVDGILGPNTTNALSKGSDAYIT	0.094
HMILQTLSERVTETLRDWILHGHFKPGDKIEEVPIAERMGVSRTPVRAAFATLTNEGLIDHQPNRGYQVRV	-0.325
HMTSIISLAKARSIALQKVPGATSKNIHLSLDDEDDKQVYEGEIKYKQMEYVFEIDAKTGTFLKWTSERD	-1.66
HMQKLLGPFEDFVKIKLDKYPDTKAAQMHDWLKEHYPDFPEVTPKTVYNFVMYVRQRHNIPIPD	-0.0276
HMDLPDFTSRERDILARVVQGDSNERIAASLGVSVSTVKTHIGNILRKTGQTNRVRLIVWATRHL	-1.72
HMNSFKIYPNPSSREVVRFNQAQDVKVYDTLGKLILSAKNTSAIDTKSFNTGIYFIKTANGLTKKLIV	-0.695
HMDLSPEQAELAAIRGELGIKIDDYALALNIPRDRLTSYLYGRANVPAEVLISARELRYASSA	0.00303
HMGWEDLVGKTAVVKVALAPVGMVFFRGEFWSAISETGRIEPGEEVTISRIDGLKLYVTKKRIM	-0.607
HMSVKTIRKTEFAKRLYSLMLEKNWNQSDLARASGMGRDSVSQYIRANNTPSPQNLKKLAEALGVEPVELY	-1.3
HMRLPLYLALAQTLRQEIDAKQYKIGAHLPPEDQLVVKYGVSRHTVRQALQELKNEGLITSKAGIGTIVSS	-0.666
HMIEDMTINIEERLSLNGDIKKSEYILQYIKPDFIRKVILSPELNKGEIYIYDSKKKVMYLPLFDQVSEEI	-0.463
HMDDFITLVIHTPAHAQNLRNILESHGMEVRLEDFVSFKSPVAVAQRVKIRPKDLPLALKIIESGE	0.227

Sequence	soluble fraction (log2)
HMKDLQHLVGEKGTTVTPLRPSGIALIKGSRYDVVSEGSFIQQGVAVEVIKVEGRRVVVSPLQED	-0.16
HMTIAFPSNDVDAVVGYFESRGFDRTASISTATVILQQAKIDGVKVFELIDTLQGMDKVQLSYIVTEILN	0.03
HMVPLSPRFFDIFRKRKDLTRQNVDVYFRDHPTEITAFERYIKGLVSQSYIPAERADALLLVASQYKAK	-0.784
HMSKRDDLLDQASEWLAKLDRDLTVVEERELKAWLGESAAHRETFIQMAKLWDKMESLSRLTDL	-0.397
HMKKSGFFSAGDRIQLTDNKGRQYSFNITEGKEFHTHQGFIKHDDLIGMPEGSVVSINSTTGVVQKFMAF	-0.164
HMHMKTIEWDSLVLIMYKDMKYLKRINEGQSFHGKGGMLNYADLIGKTYGIRFGQYEIFEPSLEDIVMYG	-0.126
HMAVRLADMAAEKIRKMIIENKFDAGEPLSEMRLAEMFNVSRTPIREAIAILEQEGLLTTVHGKGAFIS	-0.367
HMTGLFSPTEQTRHSKTGATLYSVKLAERIERNAFQSLKKRAKEHDGYYSSFTRSFLFDTPEDAEAFRGT	-0.27
HMKNYYRILGLNIDAEYEEIKAAYRILAQRHHPDKGGAAAEFRLIQEAYDILSNPLTKRNYDADLLATLN	-0.521
HMGKNIQAIRYKNNMTQDQVVAKLNLMGISITKSTYAKLETNRMNIKASELVALAKLFHTDINAFFSG	-3.24
HMDFSYTVGDIDEPIDSRGNSVIMLRKLAWGSNAEKLEIRRWIIDIDSERANKGVTFLTEEGPHNLVRV	0.128
HMVSVEINTVERDETFRKMFTSGWKPENRIQALAVEQAKKNGLGRMSEVAGLASFRGIWKQATEQVALEA	-0.12
HMNSLTVPDITNRTLAEASQVLLDMGLTPIPDAVAKDGVGDDVVYAQSPPPNVGAREGDVVTITYNPA	0.156
HMSILYNAVKGTLVSSGALTADSWYKISSFGTASALPALKVGSIFKTPEGAGDAITLASGDSVYPLTLT	-1.26
HMGNLASRVAEQLLDKMRGDSLVPGTRLPSEIAMAKHFGVSRTVMREAIARLKADGLLETRRGSGAFVLAT	-0.664
HMAIVNVEVPSLVGKTEQEARNLLTEAGLKVNVVNDEDESKNDGVVLRQSKDAGTEVQEGTTITITVNKVS	-0.218
HMKAGEDAVQKAVLEAVAESAAAVADYKAGSERALNFIVGKVMKKTRGKASAAEVHRLVREEVDR	0.0904
HMNVYAGTMINVVGLQVEDAASRLRGLFYSVKIVEEESQEPDGKVLRQNIAEGTKDLEAWTLVELTVSKYV	-0.872
HMGVSLKEIQENLSLIDDAAQKLASGQGTVDDAVGMGNAGKDIYDNIEGYVSSPKEFINGVLSSV	-0.104
HMQETIDVAALRVGMFVHLDLGWLAHPFPLSSFRISSEDQISTIRALGLKRVRWSSQHSELG	-1.11
HMESWEDSNIANEFKSTIKIAEKRLAEGGDHPELLEKLEALKQAIINENQTEASKLDDQVNDILFDMDD	-0.0057
HMATPKRGFRKQLAPLVQSGTITREEAGELSRSSGDATALRTKIGELMKAGKLTRKEAGELYSDAFPENA	0.153
HMGGLIDQSIQEIIDKYSVPGKKIQKAQRLKIVAEMHTKGIFKMRGGVQQAAQALGVTRYTVYNDLEVMN	-2.89
HMQDREIHIHAGREVLEKELSRLSLHLKNTNLQEYAARFNVKTAEDILAGIGAGDIRPAHVVNLIADKL	0.0629
HMVTIEEMMDRLLTRVQRAVNMSFSEFSGEAKEKVEVIVSFLALLELVKQGAVDVLQHENFSDIRIENT	-0.857

Sequence	soluble fraction (log2)
HMDGRSLSHATLEEIRIRAVQRVEAGESPEVVVKALGFSRPRIYEWLALYREGGLEALRAKPV	-0.505
HMIKSEERIQNIKEYILEFQFTYHRTPTMAQIAEAVGTVKSNVYKYLSEMEERGILTRNKREIEINDTIQ	-0.819
HMVPTYEAYVGKEGLVVGTLRPAGTAEFDGERLDVVSEGEYLEAGTRVQIVRTEGRRIVVRKIN	0.0504
HMARNHYETLGVGRTATGDEIRKAYRSEAQKHHPDRGGDAERMQSLNEARDTLLDDQARAAYDQELDL	0.125
HMPLITLSAEIQSEQIGQRLDQTLAELFPEYSRSRLKTWIEADLVKLNNQIVNIPREKVLGGEHVEITVDI	-0.611
HMRSEILNLLREKSPQPVSGQDLANHFGITRTAVWKHIQSLKKMGYGIEAYTKKGYVLVSVPN	-0.0638
HMDAINYEDFQLLIKQRGSFKVAFEDIMFSTKVAIEKKEDFYDFVTKLIDNGFNNMAYNYLEGFQD	-2.09
HMIHDSAESVVFPFGKYKGYTLAHVIREHPHYTYWIRDNADFSPLWREAVSLALQNRDIGHLNLPHVK	-0.416
HMGGLSAEQKNGIQSVLKNFDPKNLTSADAKSITSEFKKLGVQPGKDLETTMAASGFDAKEVGRLAF	0.0781
HMSSVEEILQTLGGRIRTQRLAQGISQQVLADRAGLSLGAVRQLEGSGQSGLDTLVRVLFVLGIVDEL	-2.21
HMKPDMAVIVGSRTLTFATTTDRQILVLRTDGTMVNRLSMKAGETRTITLPAGVYIVNGKKIIV	-0.808
HMDNPYEVFIPNSYIGQRLDQTLASLFPQFSRSRLQNWLASGNLLVNGKIVKPKTKILGGEQINILDPYN	-0.339
HMQMSPREKMIYSFIESHPGTKSGEIAEKLNVPLPTVKRILSEMVSGNFIAKHGSGIGTNYSTEK	0.233
HMITIDADTGKRVYTRKEVADLVGASTQSIRLWEDAGAIPASVRDEGGYRYWYEEDLEAIKAYAS	-0.19
HMTPTNILIVEDEKEIRRFVRTALESEGLRVFESETLQRGLIEAGTRKPDLIILDLGLPDGDGLSYIRDLR	-0.123
HMQGISGIERSLLDALAFEPAGLDALQARTGLDTPTLQALLMGLELQGHVARLPGSLFQRLVR	-0.523
HMVDTEVFSRLLRKVLAGDVTSAIRILEELIVGGRELSQFVGDFTWYMRNLLLVKTSDNPEEA	-0.397
HMDSLQDFAYEEIKKRIQNGEYAPGTKLNTQEISDSLGISRSPVLAAINRLIALGLVEATPRKGTTVA	0.0527
HMEKPTRNKLVEIIIQNKNVTTEQMANLLNISRRAVAKHIKKLQEEGIIRRIGPDFGGHWEIVK	0.0258
HMSKSVEQRRQQIVAWVKEHGQSQVEDLAVRFATSEVTIRKDLAALSQQGLLIRQFGGAVPVPA	-0.661
HMGKVNTRNRNEGKFYKNGKKKPANWEYRFEAAPVNGKRQQISDAGYPTEKAAYEAGIAAYEKYNSAGSVN	0.0482
HMPEIFYRKIHRTDHDQIALDAEMIRLLIAIDEKKSLSQIAAEVQMEPMALKKNLGKLIQLGLVEPIK	0.137
HMQEESISWKEFLELDIIGDKKKRLKVYDLFHLGYGNAKTLFKRLNMVGISREMIEKELENEGY	-1.32
HMTEQLTLVGKTGVTTTDLRPSGKVEVDGKRYDAVADNGAFISKGAHIKVVRYVTGQVYVVPTD	0.0883
HMLDTELEANLRSQRDQKLVEELDPIVTNPLRWAELTSDKQTEWTQYRTDLLNVPQQSGFPTNVTWPEKP	0.212
